Reference: patent publication US20110312891A1, “ENAMEL MATRIX DERIVATIVE FRACTION C” (Straumann Holding AG, priority 2008, published 2011)

Tests used:
[1] = test system: MG63 cells; assay: WST-1 cell proliferation and viability assay; type: cell-based, human; conditions: 1 μg/mL; after 7 days; compared to the negative control
Method: Minimum Essential Medium Eagle (MEM)+10% Fetal calf serum +1% Penicilin-Streptomycin (×100)+1% Non Essential Amino Acid Solution (×100)+1% L-Glutamine (200 mM) Seeding density MG63 cells in passage 4 were seeded with a density of 10,000 cells/cm2 on 96 wells culture plates. Sampling was performed after 24 hours and 7 days in vitro.
Furthermore, the proliferation reagent WST-1 test was performed to assess cell proliferation and viability. WST-1 solution was added in a final solution of 1:10 to the monolayer culture and cells were incubated at 37° C. for a further 1 hour. The absorbance of the supernatants was measured spectrophotometrically using VersaMax micro plate reader (Molecular Devices, California, USA) at 420 nm-480 nm with a reference wavelength of 600 nm. Results are reported as optical density (OD).

[2] = test system: osteoblasts; assay: Effect of fraction C, its isoforms and synthetic amelogenin peptides on bone markers in osteoblasts; type: cell-based; conditions: for LDH activity in the culture medium: compared with fraction C and the mix of peptides (3113), slightly more toxic effect
Method: We have tested synthetic peptides of amelogenin (exon1, 3 and 5) of various lengths.
Fraction C, having a molecular weight of 5250.4 g/mol was used at a final concentration of 5 μg/ml (0.9 μmol/L). The peptides were used in a molar concentration similar to fraction C. WBRA001 enhanced osteocalcin and CD44 expression and secretion similar to fraction C, the smaller peptides had no effect on the bone markers in osteoblasts. 5 kDa amelogenins, isolated from EMD batch 3113 was identified to contain both; C1RP or C2RP (1-43 and 1-45 TRAP), whereas the fraction C isolated from EMD batch 9121 contains not only C1RP and C2R (1-43 and 1-45 TRAP), but 2 further, unidentified minor peaks. The effect of the different isoforms on expression of bone markers was tested on osteoblasts.

[3] = test system: MG63 human osteoblast-like cells; assay: Osteoblast differentiation in confluent MG63 cultures treated for 24 hours (DNA, ALP, osteocalcin, OPG, VEGF, FGF-2); type: cell-based
Method: Methods: Confluent cultures of MG63 human osteoblast-like cells and normal human osteoblasts were treated with or without EMD, recombinant human amelogenin (rhAmel), Fraction A (0.01-100 μg/ml) or Fraction C (0.1-250 μg/ml) for 24 hours. Effects on DNA content and alkaline phosphatase specific activity (ALP), and osteocalcin (OCN), osteoprotegerin (OPG), vascular endothelial growth factor A (VEGF-A) and fibroblast growth factor-2 (FGF-2) levels in the conditioned media were determined.
MG63 osteoblast-like cells, originally isolated from a human osteosarcoma, were obtained from the American Type Culture Collection (Rockville, Md.). […]
MG63 Cells were cultured in Dulbecco's modified Eagle medium (DMEM) containing 10% fetal bovine serum (FBS) and 1% penicillin and streptomycin at 37° C. in an atmosphere of 5% CO2 and 100% humidity. […] The levels of osteocalcin in the conditioned media were measured using a commercially available radioimmunoassay kit (Human Osteocalcin RIA Kit, Biomedical Technologies, Stoughton, Mass.) and normalized to DNA content. […] Osteoprotegerin was measured using enzyme-linked immunosorbent assay (ELISA) kit (DY805 Osteoprotegerin DuoSet, R&D Systems, Minneapolis, Minn.). VEGF was assesseds using an ELISA kit (RnD Systems). […] The absorbance of the samples was read using a microplate reader and the results analyzed using a standard curve. […]

[4] = test system: primary osteoblasts; assay: Affymetrix gene chip analysis of primary osteoblasts, EMD versus PTH; type: cell-based, human; conditions: 24 h after stimulation; cells of two donors
Method: Commercially available primary human osteoblasts from both femur and tibia of different donors (NHOst cell system; Cambrex, Walkersville, Md., USA) were grown in osteoblast growth media (OGM, Cambrex). Cultured osteoblasts were exposed to hydrocortisone hemisuccinate (200 nM) and h-glycerophosphate (10 mM) (Cambrex) in ambient medium to facilitate mineralization. The phenotype of cells was characterized based on the expression levels of alkaline phosphatase (ALP), collagen type 1, osteocalcin, and CD44 (late differentiation marker), and formation of mineralization nodules.
Primary osteoblasts were cultured in T75 culture flasks and cultured after treatment for 24 h, 72 h or 7d respectively and lysed in 7 ml Trizol solution (Gibco, USA). Trizol lysates were kept at −70° C. until RNA isolation according to the manufacturer's protocols and further processing (Dep. of Medical Biochemistry, Oslo University, Norway). Double stranded cDNA and biotin labeled cRNA probes were made from 5 μg total RNA using the Superscript Choice system (Invitrogen) and the Enzo Bioarray respectively. Procedures were according to recommendations from Affymetrix. […]
To compare the effects of PTH peptides and EMD on primary osteoblasts, cells of two donors were treated synchronously and expression patterns were analysed by affymetrix gene chip analysis. […]

Molecule | cell viability and proliferation (WST-1) [1] | LDH activity in the culture medium [2] | further results
C1RP: Peak 1 of Frac C; SEQ.ID.NO: 1, 43AA form MPLPPHPGHPGYINFSYEVLTPLKWYQNMIRHP-YTSYGYEPMG (MPLPPHPGHPGYINFXYEVLTPLKWYQNMIRHPYTSYGYEPMG; MOD_RES (16)..(16) Ser or Glu, wherein Ser is optionally phosphorylated; listed as Sus scrofa) [Fraction C1RP] | clear effect | higher LDH activity | 
C2RP: Peak 2 of Frac C; SEQ.ID.NO: 2, 45AA form MPLPPHPGHPGYINFSYEVLTPLKWYQNMIRHP-YTSYGYEPMGGW (MPLPPHPGHPGYINFXYEVLTPLKWYQNMIRHPYTSYGYEPMGGW; MOD_RES (16)..(16) Ser or Glu, wherein Ser is optionally phosphorylated; listed as Sus scrofa) [Fraction C2RP] | clear effect | higher LDH activity | 
MPLPP HPGHPGYINFSYEVLTPLKWYQSIRPP-OH [WBRA001] |  |  | osteocalcin and CD44 expression and secretion ([2]; molar concentration similar to fraction C, 5 μg/ml (0.9 μmol/L)): enhanced
rhAmel: recombinant human amelogenin over-expressed in Escherichia Coli (protein, UniProt Q99217 17-191, looked up) Amelogenin, X isoform: MPLPPHPGHPGYINFSYEVLTPLKWYQSIRPPYPSYGYEPMGGWLHHQIIPVLSQQHPPTHTLQPHHHIPVVPAQQPVIPQQPMMPVPGQHSMTPIQHHQPNLPPPAQQPYQPQPVQPQPHQPMQPQPPVHPMQPLPPQPPLPPMFPMQPLPPMLPDLTLEAWPSTDKTKREEVD |  |  | concentration of maximal increases in osteocalcin ([3]; FIG. 4): 1 µg/mL; osteocalcin production (dose response) ([3]; FIG. 4, N=6 cultures per variable, p<0.05 v. control): biphasic increase
PTH: PTH peptides compared with EMD on primary osteoblasts (protein, UniProt P01270 32-115, looked up, Parathyroid hormone, PTH peptides compared with EMD on primary osteoblasts) Parathyroid hormone: SVSEIQLMHNLGKHLNSMERVEWLRKKLQDVHNFVALGAPLAPRDAGSQRPRKKEDNVLVESHEKSLGEADKADVNVLTKAKSQ |  |  | genes more than 2-fold changed in the same direction with both EMD and PTH from non-treated controls [4]: 254 genes
